Results as given in patent US20260242478A1 (published 2026).
Where no end group is shown, it is not given here.

B1: Phage-529 (peptide)
peptide: YCQGHLPMYMAKCL
modifications: cysteine pairing not given here; also: displayed on phage as fusion to pIII, linker, pIII sequence and order not given here
notes: Clonal phage supernatant; not shown: pIII filament protein of the bacteriophage to which the peptide is fused
B2: Phage-532 (peptide)
peptide: YCQGHLPMYMEKCL
modifications: cysteine pairing not given here; also: displayed on phage as fusion to pIII, linker, pIII sequence and order not given here
notes: as for B1
B3: Phage-538 (peptide)
peptide: YCDGHLPEYREKCF
modifications: cysteine pairing not given here; also: displayed on phage as fusion to pIII, linker, pIII sequence and order not given here
notes: as for B1
B4: Phage-988 (peptide)
peptide: YCDGHFLTYMTKCL
modifications: cysteine pairing not given here; also: displayed fused to phage pIII protein, fusion end and linker not given here
notes: Clonal phage of the peptide-87 library, tested as crude supernatant; not shown: fused to the pIII filament protein of the bacteriophage
B5: Phage-987 (peptide)
peptide: YCDGHSPLYMVKCL
modifications: cysteine pairing not given here; also: displayed fused to phage pIII protein, fusion end and linker not given here
notes: as for B4
B6: Phage-986 (peptide)
peptide: YCDGHSQEYMAHCL
modifications: cysteine pairing not given here; also: displayed fused to phage pIII protein, fusion end and linker not given here
notes: as for B4
B7: Phage-984 (peptide)
peptide: YCQGHLPQYVEKCL
modifications: cysteine pairing not given here; also: displayed fused to phage pIII protein, fusion end and linker not given here
notes: as for B4
B8: Phage-537 (peptide)
peptide: YCEGHSWANLGKCL
modifications: cysteine pairing not given here; also: displayed on phage as fusion to pIII, linker, pIII sequence and order not given here
notes: as for B1
B9: Phage-534 (peptide)
peptide: YCDGHSPLYMWKCL
modifications: cysteine pairing not given here; also: displayed on phage as fusion to pIII, linker, pIII sequence and order not given here
notes: as for B1
B10: Phage-985 (peptide)
peptide: YCEGHLDMYVWKCL
modifications: cysteine pairing not given here; also: displayed fused to phage pIII protein, fusion end and linker not given here
notes: as for B4
B11: Phage-533 (peptide)
peptide: YCEGHLPQYMAKCL
modifications: cysteine pairing not given here; also: displayed on phage as fusion to pIII, linker, pIII sequence and order not given here
notes: as for B1
B12: Phage-983 (peptide)
peptide: YCDGHLPMYMKKCL
modifications: cysteine pairing not given here; also: displayed fused to phage pIII protein, fusion end and linker not given here
notes: as for B4
B13: Phage-531 (peptide)
peptide: YCDGHSPMYILKCL
modifications: cysteine pairing not given here; also: displayed on phage as fusion to pIII, linker, pIII sequence and order not given here
notes: as for B1
B14: Phage-535 (peptide)
peptide: YCDGHLPMYMQKCL
modifications: cysteine pairing not given here; also: displayed on phage as fusion to pIII, linker, pIII sequence and order not given here
notes: as for B1
B15: Phage-539 (peptide)
peptide: YCEGHLPEYMLKCL
modifications: cysteine pairing not given here; also: displayed on phage as fusion to pIII, linker, pIII sequence and order not given here
notes: as for B1

Key:
[1] = target: T1, Anti-CD28 Fab (SEQ ID NOs: 696, 697); experiment: phage ELISA; Fab-coated wells pre-incubated with CD28 antigen as competitor, anti-M13-HRP detection
T1 construct: In the phage ELISA the Fab was biotinylated and captured on neutravidin coated plates
T1 sequence (VH, as listed by the source, chain 1 of 2): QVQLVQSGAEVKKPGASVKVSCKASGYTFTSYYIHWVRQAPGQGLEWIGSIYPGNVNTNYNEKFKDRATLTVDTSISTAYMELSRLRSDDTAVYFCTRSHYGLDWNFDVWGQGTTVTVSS
T1 sequence (VL, as listed by the source, chain 2 of 2): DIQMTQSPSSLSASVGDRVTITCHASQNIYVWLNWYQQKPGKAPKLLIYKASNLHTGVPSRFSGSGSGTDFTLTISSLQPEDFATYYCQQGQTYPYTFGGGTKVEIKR
Procedure: (§1) After panning, phage infected bacteria were plated out and colonies picked into 96 well blocks. Clonal phage was then amplified and separated from bacterial cells via centrifugation.
(§2) Clonal phage were harvested as crude supematants and screened via standard ELISAs. […] Prior to the addition of clonal phage, wells were incubated with blocking buffer and CD28 antigen or blocking buffer alone. Without washing or aspirating, clonal phage supematants were then added to the wells and incubated for a short time. Wells were then washed followed by detection of bound phage using a horse radish conjugated anti-M13 antibody. Clonal phage of interest were then sent for sequence analysis.

[2] = target: T1, Anti-CD28 Fab (SEQ ID NOs: 696, 697); experiment: phage ELISA; biotinylated anti-CD28 Fab on neutravidin plates, bound phage detected with anti-M13-HRP
Procedure: as §1, §2

[3] = target: T2, Anti-CD28 Fab (SEQ ID NOs: 696, 697); experiment: phage binding ELISA; biotinylated Fab on neutravidin plate, clonal phage supernatant, anti-M13 HRP;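 further: clones picked after panning, added to wells pre-incubated with CD28 antigen or with blocking buffer only, no wash before phage addition, bound phage read after washing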
T2 construct: Biotinylated and captured on neutravidin coated plates in the phage ELISA
T2 sequence (VH, as listed by the source, chain 1 of 2): as the sequence (VH, as listed by the source, chain 1 of 2) above
T2 sequence (VL, as listed by the source, chain 2 of 2): as the sequence (VL, as listed by the source, chain 2 of 2) above
Procedure: as §1, §2

[4] = target: T2, Anti-CD28 Fab (SEQ ID NOs: 696, 697); experiment: phage binding ELISA; Fab wells pre-incubated with CD28 antigen as competitor, anti-M13 HRP
Procedure: as §1, §2

[5] = target: T3, Anti-CD28 Fab (SEQ ID NOs: 696, 697); experiment: phage binding ELISA; Fab-coated wells pre-incubated with CD28 antigen as competitor, anti-M13 HRP detection;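 further: crude clonal phage supernatants from panned colonies added to wells after blocking buffer plus CD28 treatment, bound phage measured after a brief incubation and washing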
T3 construct: In the phage ELISA the Fab was biotinylated and captured on neutravidin coated plates
T3 sequence (VH, as listed by the source, chain 1 of 2): as the sequence (VH, as listed by the source, chain 1 of 2) above
T3 sequence (VL, as listed by the source, chain 2 of 2): as the sequence (VL, as listed by the source, chain 2 of 2) above

[6] = target: T3, Anti-CD28 Fab (SEQ ID NOs: 696, 697); experiment: phage binding ELISA; biotinylated anti-CD28 Fab on neutravidin plate, clonal phage supernatant, anti-M13 HRP detection
Procedure: as §1, §2

Binder | Phage binding ELISA, Anti-CD28 Fab signal in the presence of CD28 [1] | Phage binding ELISA, Anti-CD28 Fab signal [2] | Anti-CD28 Fab (SEQ ID NOs: 696, 697) signal [3] | Anti-CD28 Fab signal in the presence of CD28 [4] | other results
YCDGHSPIYMSKCL (Tested as clonal phage supernatant) [Phage-710] | 0.09 | 2 |  |  | 
YCDGHLPIYMTQCL (Tested as clonal phage supernatant) [Phage-721] | 0.08 | 1.97 |  |  | 
YCDGHSQEYIAKCL (Tested as clonal phage supernatant) [Phage-715] | 0.07 | 1.99 |  |  | 
B1 |  |  | 2.34 | 0.08 | 
B2 |  |  | 2.34 | 0.09 | 
B3 |  |  | 2.32 | 0.07 | 
B4 |  |  |  |  | Anti-CD28 Fab signal in the presence of CD28 [5]: 0.07; Anti-CD28 Fab signal (phage binding ELISA) [6]: 1.56
B5 |  |  |  |  | Anti-CD28 Fab signal in the presence of CD28 [5]: 0.06; Anti-CD28 Fab signal (phage binding ELISA) [6]: 1.56
YCVGHLPQYMEKCL (Tested as clonal phage supernatant) [Phage-717] | 0.08 | 1.98 |  |  | 
B6 |  |  |  |  | Anti-CD28 Fab signal in the presence of CD28 [5]: 0.07; Anti-CD28 Fab signal (phage binding ELISA) [6]: 1.56
YCAGHLPMYMHKCL (Tested as clonal phage supernatant) [Phage-714] | 0.18 | 1.99 |  |  | 
YCEGHLPMYFLKCM (Tested as clonal phage supernatant) [Phage-720] | 0.06 | 1.97 |  |  | 
B7 |  |  |  |  | Anti-CD28 Fab signal in the presence of CD28 [5]: 0.08; Anti-CD28 Fab signal (phage binding ELISA) [6]: 1.57
B8 |  |  | 2.32 | 0.08 | 
YCEGHAAEYMMKCL (Tested as clonal phage supernatant) [Phage-713] | 0.07 | 1.99 |  |  | 
B9 |  |  | 2.34 | 0.08 | 
B10 |  |  |  |  | Anti-CD28 Fab signal in the presence of CD28 [5]: 0.08; Anti-CD28 Fab signal (phage binding ELISA) [6]: 1.56
B11 |  |  | 2.34 | 0.14 | 
B12 |  |  |  |  | Anti-CD28 Fab signal in the presence of CD28 [5]: 0.1; Anti-CD28 Fab signal (phage binding ELISA) [6]: 1.57
YCDGHLPQYMSKCL (Tested as clonal phage supernatant) [Phage-712] | 0.1 | 2 |  |  | 
YCDGHMPQYMSKCL (Tested as clonal phage supernatant) [Phage-716] | 0.08 | 1.98 |  |  | 
YCEGHLAEYMDKCL (Tested as clonal phage supernatant) [Phage-722] | 0.07 | 1.96 |  |  | 
YCDGHSDQYMWKCL (Tested as clonal phage supernatant) [Phage-711] | 0.11 | 2 |  |  | 
YCDGHLGIYMTKCL (Tested as clonal phage supernatant) [Phage-718] | 0.08 | 1.98 |  |  | 
YCEGHLSQYMQKCL (Tested as clonal phage supernatant) [Phage-709] | 0.09 | 2 |  |  | 
B13 |  |  | 2.34 | 0.08 | 
B14 |  |  | 2.33 | 0.11 | 
YCDGHLWEYMDKCL (Tested as clonal phage supernatant) [Phage-719] | 0.06 | 1.97 |  |  | 
B15 |  |  | 2.32 | 0.09 | 
